The supplement of paper PMC10065799, “High-throughput profiling of sequence recognition by tyrosine kinases and SH2 domains using bacterial peptide display” (eLife, 2023)

Experiments:
AncSZ = assay: phosphorylation enrichment, bacterial display (enrichment ratio); higher = better substrate or ligand; peptides without Tyr show the background
EPHB1 = EPHB1 (UniProt P54762); assay: as above
EPHB2 = EPHB2 (UniProt P29323); assay: as above
FGFR1 = FGFR1 (UniProt P11362); assay: as above
FGFR3 = FGFR3 (UniProt P22607); assay: as above
Sequence of FGFR3 (P22607 whole entry, looked up): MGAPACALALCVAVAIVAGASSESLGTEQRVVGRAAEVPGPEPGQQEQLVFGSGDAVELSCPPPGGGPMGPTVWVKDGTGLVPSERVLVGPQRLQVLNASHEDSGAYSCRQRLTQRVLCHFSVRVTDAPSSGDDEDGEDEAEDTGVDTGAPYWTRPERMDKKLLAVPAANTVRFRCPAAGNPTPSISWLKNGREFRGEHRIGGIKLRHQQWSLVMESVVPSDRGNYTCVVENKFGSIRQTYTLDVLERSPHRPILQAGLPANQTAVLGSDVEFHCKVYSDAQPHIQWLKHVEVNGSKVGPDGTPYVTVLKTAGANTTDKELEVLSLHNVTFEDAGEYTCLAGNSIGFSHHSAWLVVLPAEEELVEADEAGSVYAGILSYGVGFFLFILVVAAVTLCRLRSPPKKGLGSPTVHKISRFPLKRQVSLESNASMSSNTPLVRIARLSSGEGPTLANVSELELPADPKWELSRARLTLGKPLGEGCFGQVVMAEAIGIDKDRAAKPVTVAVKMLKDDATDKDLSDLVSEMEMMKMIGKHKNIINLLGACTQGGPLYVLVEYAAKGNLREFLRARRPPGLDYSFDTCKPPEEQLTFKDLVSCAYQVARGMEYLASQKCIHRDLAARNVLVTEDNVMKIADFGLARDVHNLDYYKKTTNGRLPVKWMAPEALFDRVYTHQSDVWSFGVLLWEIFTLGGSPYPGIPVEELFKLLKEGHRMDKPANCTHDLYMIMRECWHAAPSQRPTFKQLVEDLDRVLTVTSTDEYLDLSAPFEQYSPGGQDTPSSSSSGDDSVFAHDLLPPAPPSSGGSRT

Fer (mouse) = assay: as above
Fes = Fes (UniProt P07332); assay: as above
Fyn = Fyn (UniProt P06241); assay: as above
Sequence of Fyn (P06241 whole entry, looked up): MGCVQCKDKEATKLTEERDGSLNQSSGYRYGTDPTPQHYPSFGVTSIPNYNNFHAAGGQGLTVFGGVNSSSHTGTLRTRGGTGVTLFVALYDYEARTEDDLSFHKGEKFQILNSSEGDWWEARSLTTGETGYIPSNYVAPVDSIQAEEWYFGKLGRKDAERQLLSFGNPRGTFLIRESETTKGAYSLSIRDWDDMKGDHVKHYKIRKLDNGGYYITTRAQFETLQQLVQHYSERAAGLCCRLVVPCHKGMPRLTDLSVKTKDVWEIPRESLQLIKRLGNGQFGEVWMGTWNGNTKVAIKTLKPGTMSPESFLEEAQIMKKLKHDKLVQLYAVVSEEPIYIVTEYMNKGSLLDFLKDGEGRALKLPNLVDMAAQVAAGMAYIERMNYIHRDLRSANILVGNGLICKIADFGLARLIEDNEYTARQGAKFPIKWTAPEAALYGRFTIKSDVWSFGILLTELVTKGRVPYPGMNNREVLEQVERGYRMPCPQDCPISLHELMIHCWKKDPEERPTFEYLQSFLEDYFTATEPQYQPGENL

Hck = Hck (UniProt P08631); assay: as above
Sequence of Hck (P08631 whole entry, looked up): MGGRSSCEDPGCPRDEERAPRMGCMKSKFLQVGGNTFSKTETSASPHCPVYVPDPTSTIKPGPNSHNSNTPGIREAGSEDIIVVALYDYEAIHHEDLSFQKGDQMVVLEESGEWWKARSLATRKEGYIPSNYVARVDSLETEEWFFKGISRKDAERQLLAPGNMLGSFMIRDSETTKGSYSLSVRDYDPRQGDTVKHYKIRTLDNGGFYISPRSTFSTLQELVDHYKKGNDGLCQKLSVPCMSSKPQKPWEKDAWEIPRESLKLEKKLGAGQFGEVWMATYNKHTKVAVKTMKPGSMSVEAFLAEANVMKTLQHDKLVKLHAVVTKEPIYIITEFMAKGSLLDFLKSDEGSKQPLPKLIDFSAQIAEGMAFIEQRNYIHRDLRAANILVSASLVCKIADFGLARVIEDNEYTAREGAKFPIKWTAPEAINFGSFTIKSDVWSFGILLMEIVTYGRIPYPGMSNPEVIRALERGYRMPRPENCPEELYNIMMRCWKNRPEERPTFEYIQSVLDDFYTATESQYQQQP

Jak2 = Jak2 (UniProt O60674); assay: as above
MERTK = MERTK (UniProt Q12866); assay: as above
Sequence of MERTK (Q12866 whole entry, looked up): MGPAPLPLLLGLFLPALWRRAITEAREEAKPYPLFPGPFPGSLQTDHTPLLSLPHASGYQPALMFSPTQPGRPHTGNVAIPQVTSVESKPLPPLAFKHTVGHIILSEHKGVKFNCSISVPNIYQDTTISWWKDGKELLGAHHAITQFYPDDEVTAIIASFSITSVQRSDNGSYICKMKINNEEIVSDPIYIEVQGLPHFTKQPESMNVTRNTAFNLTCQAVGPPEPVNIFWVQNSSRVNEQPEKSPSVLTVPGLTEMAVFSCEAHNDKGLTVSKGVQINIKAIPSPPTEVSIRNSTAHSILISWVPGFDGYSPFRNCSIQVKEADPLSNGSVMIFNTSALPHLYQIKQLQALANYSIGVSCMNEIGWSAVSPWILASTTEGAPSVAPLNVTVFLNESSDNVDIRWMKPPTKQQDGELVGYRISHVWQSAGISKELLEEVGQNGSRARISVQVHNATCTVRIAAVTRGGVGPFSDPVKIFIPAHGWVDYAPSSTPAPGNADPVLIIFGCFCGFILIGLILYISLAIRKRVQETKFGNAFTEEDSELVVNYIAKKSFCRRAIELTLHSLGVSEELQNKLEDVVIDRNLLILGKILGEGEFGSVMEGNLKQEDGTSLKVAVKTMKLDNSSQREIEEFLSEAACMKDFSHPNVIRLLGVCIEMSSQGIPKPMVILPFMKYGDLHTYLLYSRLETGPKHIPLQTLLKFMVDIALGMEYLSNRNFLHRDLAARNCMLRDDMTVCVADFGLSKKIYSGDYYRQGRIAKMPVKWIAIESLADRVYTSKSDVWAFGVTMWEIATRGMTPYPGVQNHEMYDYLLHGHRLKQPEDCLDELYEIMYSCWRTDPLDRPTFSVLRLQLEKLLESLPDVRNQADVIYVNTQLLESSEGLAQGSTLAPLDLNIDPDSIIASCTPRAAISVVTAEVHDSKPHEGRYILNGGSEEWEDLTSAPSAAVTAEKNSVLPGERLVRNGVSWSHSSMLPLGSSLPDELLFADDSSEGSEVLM

c-Abl (mouse) = assay: as above
c-Src = assay: as above
Grb2 SH2 = Grb2 SH2 (UniProt P62993); assay: SH2 binding enrichment of the phosphorylated peptide, bacterial display (enrichment ratio); higher = better substrate or ligand; peptides without Tyr show the background
Sequence of Grb2 SH2 (P62993 whole entry, looked up): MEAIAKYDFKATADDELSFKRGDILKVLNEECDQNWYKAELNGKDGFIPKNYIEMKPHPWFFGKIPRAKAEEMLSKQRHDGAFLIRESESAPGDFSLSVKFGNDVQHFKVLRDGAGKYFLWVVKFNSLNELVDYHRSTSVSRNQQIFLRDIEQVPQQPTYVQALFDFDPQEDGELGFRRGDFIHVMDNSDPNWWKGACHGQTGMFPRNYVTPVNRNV

SHP2-C SH2 = assay: as above
c-Src SH2 = assay: as above
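For SH2 binding enrichment of the phosphorylated peptide, bacterial display in this document: peptide library displayed on the E. coli surface as eCPX fusions, selected cells deep-sequenced, score is each peptide's frequency after selection divided by its frequency in the input.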
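For phosphorylation enrichment, bacterial display in this document: 11-residue human phosphosite peptides and single-mutation variants displayed on the E. coli surface, counted by deep sequencing, each peptide's frequency after selection divided by its frequency in the unselected input library; frequency after pTyr selection over input frequency; kinase dosed for 20-30% of maximal phosphorylation in three min.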

Sequence of EPHB2 (P29323 whole entry, looked up): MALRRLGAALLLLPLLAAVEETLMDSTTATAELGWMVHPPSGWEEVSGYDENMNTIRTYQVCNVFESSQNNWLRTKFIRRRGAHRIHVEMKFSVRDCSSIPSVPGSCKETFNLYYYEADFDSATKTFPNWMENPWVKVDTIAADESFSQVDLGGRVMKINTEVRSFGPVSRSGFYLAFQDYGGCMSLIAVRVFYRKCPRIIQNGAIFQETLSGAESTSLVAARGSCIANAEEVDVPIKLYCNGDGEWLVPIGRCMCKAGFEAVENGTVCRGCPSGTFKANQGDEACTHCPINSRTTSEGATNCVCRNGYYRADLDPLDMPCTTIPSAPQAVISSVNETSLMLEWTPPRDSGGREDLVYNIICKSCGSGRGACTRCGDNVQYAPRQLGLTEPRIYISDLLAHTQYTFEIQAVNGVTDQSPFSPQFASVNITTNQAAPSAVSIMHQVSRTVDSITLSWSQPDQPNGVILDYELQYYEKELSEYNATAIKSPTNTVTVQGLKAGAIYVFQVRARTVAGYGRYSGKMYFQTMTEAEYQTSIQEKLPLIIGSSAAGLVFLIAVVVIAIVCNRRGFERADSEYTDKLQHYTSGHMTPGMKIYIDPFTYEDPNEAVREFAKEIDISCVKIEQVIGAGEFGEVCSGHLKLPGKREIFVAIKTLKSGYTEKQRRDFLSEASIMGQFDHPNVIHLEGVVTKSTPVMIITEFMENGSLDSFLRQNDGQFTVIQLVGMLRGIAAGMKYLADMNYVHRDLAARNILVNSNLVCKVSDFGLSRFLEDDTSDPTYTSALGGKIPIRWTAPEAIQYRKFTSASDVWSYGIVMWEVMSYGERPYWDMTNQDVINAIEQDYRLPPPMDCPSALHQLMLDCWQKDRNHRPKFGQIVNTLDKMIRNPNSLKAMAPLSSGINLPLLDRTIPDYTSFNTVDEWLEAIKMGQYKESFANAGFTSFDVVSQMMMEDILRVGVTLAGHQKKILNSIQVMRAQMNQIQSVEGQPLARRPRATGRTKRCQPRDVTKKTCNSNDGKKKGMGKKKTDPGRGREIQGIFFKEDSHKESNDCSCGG
Sequence of FGFR1 (P11362 whole entry, looked up): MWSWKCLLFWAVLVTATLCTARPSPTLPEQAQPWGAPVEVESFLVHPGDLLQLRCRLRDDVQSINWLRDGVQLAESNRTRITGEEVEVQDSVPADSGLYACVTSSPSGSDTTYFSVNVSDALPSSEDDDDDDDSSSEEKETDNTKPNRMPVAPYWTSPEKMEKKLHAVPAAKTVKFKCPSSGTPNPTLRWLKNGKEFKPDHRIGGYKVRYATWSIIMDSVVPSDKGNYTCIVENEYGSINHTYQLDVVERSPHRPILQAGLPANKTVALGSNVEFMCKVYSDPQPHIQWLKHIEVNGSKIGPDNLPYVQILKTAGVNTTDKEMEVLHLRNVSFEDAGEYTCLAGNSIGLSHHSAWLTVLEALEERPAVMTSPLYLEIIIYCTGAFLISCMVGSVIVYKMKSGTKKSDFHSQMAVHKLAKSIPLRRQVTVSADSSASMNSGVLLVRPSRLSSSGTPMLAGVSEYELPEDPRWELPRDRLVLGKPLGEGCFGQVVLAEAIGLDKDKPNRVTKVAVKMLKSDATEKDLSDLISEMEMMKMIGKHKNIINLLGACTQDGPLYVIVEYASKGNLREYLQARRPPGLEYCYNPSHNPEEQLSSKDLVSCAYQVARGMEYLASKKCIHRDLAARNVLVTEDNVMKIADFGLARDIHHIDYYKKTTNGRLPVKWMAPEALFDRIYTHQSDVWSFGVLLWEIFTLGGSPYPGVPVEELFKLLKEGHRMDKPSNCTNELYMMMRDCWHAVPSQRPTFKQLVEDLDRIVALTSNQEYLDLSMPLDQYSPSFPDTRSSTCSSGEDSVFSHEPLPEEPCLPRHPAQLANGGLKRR

Row | Sequence | phosphorylation enrichment (AncSZ) | phosphorylation enrichment (EPHB1) | phosphorylation enrichment (EPHB2) | phosphorylation enrichment (FGFR1) | phosphorylation enrichment (FGFR3) | phosphorylation enrichment (Fer (mouse)) | phosphorylation enrichment (Fes) | phosphorylation enrichment (Fyn) | phosphorylation enrichment (Hck) | phosphorylation enrichment (Jak2) | phosphorylation enrichment (MERTK) | phosphorylation enrichment (c-Abl (mouse)) | phosphorylation enrichment (c-Src) | SH2 binding enrichment (Grb2 SH2) | SH2 binding enrichment (SHP2-C SH2) | SH2 binding enrichment (c-Src SH2)
1 | EGWQVYRLGTR [MISP_Y95_A99T] | 0.846 | 0.416 | 0.457 | 0.44 | 0.645 | 0.45 | 0.75 | 1.78 | 1.03 | 0.733 | 0.325 | 0.525 | 3.69 | 1.03 | 0.871 | 0.546
2 | FGMQLYQNFMH [GRB14_Y347_YF] | 1.06 | 3.53 | 2.41 | 0.544 | 0.772 | 5.17 | 1.04 | 2.84 | 3.03 | 0.971 | 2.89 | 0.777 | 3.67 | 2.83 | 1.34 | 1.22
3 | KDQGIYEDYVE [MYL6_Y86_T85I] | 1.2 | 0.74 | 0.853 | 0.58 | 0.672 | 1.03 | 1.08 | 2.05 | 1.06 | 0.936 | 0.489 | 0.851 | 2.02 | 0.899 | 0.905 | 0.535
4 | KKHIPHREHKS [CSNK1G2_Y206_Y206H] | 2.89 | 2.61 | 1.71 | 1.97 | 4.9 | 2.81 | 4.05 | 1.01 | 1.72 | 5.87 | 1.42 | 4.03 | 1.53 | 2.15 | 1.87 | 1.8
5 | LNPDGYEKAFE [CPXM2_Y427_YF] | 1.15 | 0.667 | 0.988 | 0.769 | 0.704 | 0.557 | 1.49 | 0.576 | 0.586 | 0.995 | 0.483 | 1.05 | 0.738 | 0.868 | 0.77 | 3.95
6 | QNTGDYYDLYG [PTPN11_Y62] | 5.36 | 16.7 | 17.8 | 17.1 | 16.1 | 1.31 | 1.29 | 5.48 | 4.7 | 5.11 | 4.37 | 1.1 | 5.07 | 0.911 | 0.725 | 0.849
7 | ITNVLYHVVGW [GBA_Y412_L410V] | 1.06 | 2.31 | 1.32 | 6.43 | 5.06 | 1.82 | 1.25 | 3.01 | 4.59 | 1.87 | 6.81 | 4.13 | 3.13 | 1.78 | 1.24 | 1.27
8 | DLVLQYLRVPL [F9_Y371_A366D] | 1.09 | 0.489 | 0.525 | 0.528 | 0.757 | 0.435 | 1.13 | 0.518 | 0.469 | 3.15 | 0.404 | 0.617 | 0.46 | 1.47 | 1.23 | 0.776
9 | EDASEYFENYI [PARP4_Y214] | 1.62 | 0.549 | 0.66 | 0.84 | 0.83 | 0.51 | 1.21 | 0.613 | 0.597 | 1.15 | 0.527 | 0.658 | 0.539 | 0.933 | 0.675 | 0.498
10 | LIHLHYIRKDY [BBS4_Y43] | 1.21 | 0.602 | 0.63 | 0.517 | 0.763 | 0.447 | 1.14 | 0.548 | 0.444 | 0.857 | 0.377 | 0.632 | 0.393 | 1.69 | 1.88 | 1.71
11 | HRLSTYTKMLF [CHST8_Y251] | 1.18 | 0.723 | 0.655 | 0.428 | 0.74 | 0.689 | 1.52 | 0.443 | 0.744 | 1.22 | 0.707 | 1.02 | 0.585 | 1.7 | 1.87 | 1.98
12 | RPPFTYATLIH [FOXP3_Y342_R347H] | 1.07 | 1.87 | 0.753 | 0.641 | 1.16 | 0.766 | 1.22 | 1.68 | 2.06 | 0.933 | 1.26 | 0.922 | 3.31 | 1.08 | 32.6 | 1.98
13 | KLCHLYQDHMQ [WNT5A_Y86] | 0.654 | 0.54 | 0.53 | 0.44 | 0.514 | 0.667 | 0.881 | 0.442 | 0.554 | 0.549 | 0.45 | 0.597 | 0.575 | 1.08 | 1.17 | 1.4
14 | IRKTEYPFSSE [ATP2C1_Y452_A450T] | 0.582 | 0.426 | 0.397 | 0.466 | 0.449 | 0.339 | 0.837 | 0.401 | 0.405 | 0.599 | 0.348 | 0.549 | 0.428 | 0.928 | 0.807 | 0.587
15 | DSMQSYDLDFP [UNC13B_Y243_YF] | 1.15 | 0.642 | 0.546 | 0.537 | 0.646 | 0.541 | 1.02 | 0.48 | 0.461 | 1.03 | 0.453 | 0.623 | 0.569 | 0.782 | 0.686 | 0.605
